Experimental data from publication PMC10237653.

How the values were obtained:
[1] = target: GST-fused AjTmod after the addition of His-fused STPKLRR (phosphorylated AjTmod) (Apostichopus japonicus); test: MST; as a4, but His-fused STPKLRR (5 uM) added to GSTTmod/His-fused actin and incubated for 10 min
[2] = target: GST-fused AjTmod (complete AjTmod sequence) (Apostichopus japonicus); test: MST; Monolith NT.115; NT-647-NHS labelled protein (about 5 uM) with 16 serial concentrations of unlabelled His-fused actin; 50 mM Tris-HCl pH 8.0, 0.02% Tween 20; 25 °C

Kd [1]: 7.16 nM
Kd [2]: 1.46 nM
Substance: His-fused actin (natural protein)
